Measured values: PMC5510750

Target: IFN-λ3 H11 displayed on yeast
Test: flow cytometry on cells

IL-10Rβ, monomeric soluble receptor, sequence (Q08334 20-220): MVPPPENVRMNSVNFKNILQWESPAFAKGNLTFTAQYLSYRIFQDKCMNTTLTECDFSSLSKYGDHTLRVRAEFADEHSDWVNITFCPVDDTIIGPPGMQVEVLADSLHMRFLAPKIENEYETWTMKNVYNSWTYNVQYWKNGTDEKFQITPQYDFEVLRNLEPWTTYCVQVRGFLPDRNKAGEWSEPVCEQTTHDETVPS

- Kd: 0.2 µM
Substance: IL-10Rβ, monomeric soluble receptor (from UniProt Q08334 20-220)
